Consider 14 molecules from US20260116991A1.

Positions count from the first letter of the chain named.

As a reminder, the EC50 is the concentration that produces a half-maximal response.

For test [1], the target named is monkey GPC3-His protein (monkey). Put plainly: ELISA, monkey GPC3-His coated; antibody 2.67 nM.
Test [2] shares this target. In words: ELISA, monkey GPC3-His coated; antibody 0.02 nM. On the technique in general: ELISA stands for enzyme-linked immunosorbent assay.
Test [3] has the same target. In words: ELISA, monkey GPC3-His coated; antibody 0.004 nM.
In test [4] the target is monkey GPC3 on HEK293T-monkey GPC3 cells (monkey). In words: FACS on HEK293T-monkey GPC3 cells.
In test [5] the target is monkey GPC3-His protein (monkey). Put plainly: ELISA, monkey GPC3-His coated; antibody 0.0008 nM.
Test [6] shares this target. Put plainly: ELISA, monkey GPC3-His coated; antibody 0.53 nM.
Test [7] has the same target. In words: ELISA, monkey GPC3-His coated; antibody 13.33 nM.
For test [8] the target is unchanged. In words: ELISA, monkey GPC3-His coated; antibody 0.11 nM.
The target is the same in test [9]. In words: ELISA, monkey GPC3-His coated; antibody 66.66 nM.
Test [10] concerns the target murine GPC3-his protein (Sino Biological, Cat. No. 50989-M08B) (murine) (UniProt Q8CFZ4). In words: ELISA, coated murine GPC3-His.

Chain of murine GPC3-his protein (Sino Biological, Cat. No. 50989-M08B) (murine) (Q8CFZ4 25-558 limits assumed): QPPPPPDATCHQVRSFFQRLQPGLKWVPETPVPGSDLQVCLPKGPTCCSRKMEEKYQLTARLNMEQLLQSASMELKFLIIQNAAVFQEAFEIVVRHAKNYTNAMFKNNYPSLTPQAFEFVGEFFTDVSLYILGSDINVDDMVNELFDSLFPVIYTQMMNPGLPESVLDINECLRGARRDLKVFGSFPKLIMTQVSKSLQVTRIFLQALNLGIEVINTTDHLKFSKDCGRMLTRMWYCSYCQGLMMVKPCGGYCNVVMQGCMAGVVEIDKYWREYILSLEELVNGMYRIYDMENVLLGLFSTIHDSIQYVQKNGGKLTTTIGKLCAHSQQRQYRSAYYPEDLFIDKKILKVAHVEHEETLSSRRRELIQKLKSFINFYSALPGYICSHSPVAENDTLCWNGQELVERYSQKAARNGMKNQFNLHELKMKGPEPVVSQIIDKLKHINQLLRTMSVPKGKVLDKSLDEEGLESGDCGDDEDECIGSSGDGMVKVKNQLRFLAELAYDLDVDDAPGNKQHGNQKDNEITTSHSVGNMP

B1: hAb005LH2L1 (antibody, human IgG1, V domains shown)
VH: EVQLVQSGAEVKKPGASVKVSCKASGYTFTDYEMHWVRQAPGQGLEWMGAIDPETGNTAYIQKFKGRVTLTTDKSTSTAYMELRSLRSDDTAVYYCTRFYSYSHWGQGTTVTVSS
VL: DIVMTQTPLSLPVTPGEPASISCRSSQSLVHSNGNTYLHWYLQKPGQSPQLLIYKVSNRFSGVPDRFSGSGSGTDFTLKISRVEAEDVGVYYCSQNTHVPPTFGGGTKVEIK
B1: the OD450 nm in test [1] was 1.24; in [2] it was 0.649; in test [3], 0.222; in test [5], 0.164; in test [6], 1.28; in [7], 1.15. Also, the figures for the OD450 nm in test [8] and in [9] were 1.13 and 1.2, respectively. Also, the EC50 in test [4] was found to be 2.88 nM. Also, the Max MFI in test [4] is 23400 MFI.

B2: hAb005LH3L1b (antibody, human IgG1, V domains shown)
VH: B1 VH with M48I, V68A
VL: B1 VL with G34R
As to B2, the OD450 nm in test [1] was determined as 1.33; in test [2] it was 0.663; in test [3] it was 0.237; in [5], 0.088; in test [6], 1.27; in test [7] it was 1.27. Also, the values for the OD450 nm in test [8] and in test [9] were 1.11 and 1.18, respectively. Besides, the EC50 in test [4] was 2.37 nM. The molecule further displayed a Max MFI in [4] of 22100 MFI.

B3: hAb007LH3L1b (antibody, human IgG1, V domains shown)
VH: EVQLVQSGAEVKKPGSSVKVSCKASGYTFTDYEMHWVRQAPGQGLEWMGTIDPETGNTAYNQKFKGRVTLTADKSTSTAYMELSSLRSEDTAVYYCTRPYSLTYWGQGTLVTVSS
VL: B1 VL with L29F, G34R, N35D, H39Q, S94F, N96G, T97S, P101Y, G105Q, V109L
As to B3, the OD450 nm is 2.37 in test [1]; 0.252 in test [2]; 0.103 in test [3]; 0.069 in test [5]; 1.95 in test [6]; 2.47 in test [7]. Besides, the OD450 nm in test [8] amounted to 0.801; in [9] it was 2.58. Also, the EC50 in [4] turned out to be 13.7 nM. The same molecule returned a Max MFI in [4] of 35900 MFI.

B4: hAb005LH2L1a (antibody, human IgG1, V domains shown)
VH: B1 VH
VL: B1 VL with N33D
Consider B4, for which the OD450 nm was determined as 0.136 in [1]; 0.041 in [2]; 0.04 in test [3]; 0.099 in test [5]; 0.056 in test [6]; 0.276 in test [7]. For the same molecule, the OD450 nm is 0.042 in [8] and 0.652 in test [9]. In test [4], the EC50 stood at 32.8 nM. The same molecule registered a Max MFI in [4] of 3490 MFI.

B5: hAb006LH3L1 (antibody, human IgG1, V domains shown)
VH: B3 VH with M34I, T50A, E54K, K65M, P99Y, Y100F, L102F, T103A
VL: B1 VL with S28T, L29F, H39Q, S94F, N96G, T97S, P101Y, G105Q, V109L
As for B5, the OD450 nm in test [1] was 2.36; in [2] it was 0.911; in test [3] it was 0.294; in [5], 0.116; in [6], 2.1; in test [7], 2.44. Besides, the results for the OD450 nm in [8] and in test [9] were 1.75 and 2.52, respectively. The molecule also yielded an EC50 in [4] of 1.7 nM. The molecule also returned a Max MFI in [4] of 34600 MFI.

B6: hAb006LH1L1 (antibody, human IgG1, V domains shown)
VH: B3 VH with T30S, M34I, T50A, E54K, K65M, L70I, P99Y, Y100F, L102F, T103A
VL: B1 VL with S28T, L29F, H39Q, S94F, N96G, T97S, P101Y, G105Q, V109L
Take B6: the OD450 nm in [1] is 2.43; in test [2], 1.1; in test [3], 0.369; in test [5] it was 0.121; in test [6], 2.5; in [7], 2.56. In addition, the OD450 nm came to 2.02 in test [8] and 2.48 in [9]. In test [4], this molecule gave a 50% effective concentration (EC50) of 1.53 nM. The molecule also yielded a Max MFI in test [4] of 33500 MFI.

B7: hAb007LH3L1 (antibody, human IgG1, V domains shown)
VH: B3 VH
VL: B1 VL with L29F, N35D, H39Q, S94F, N96G, T97S, P101Y, G105Q, V109L
For B7, the OD450 nm is 2.39 in test [1]; 0.368 in [2]; 0.198 in test [3]; 0.079 in test [5]; 2.17 in test [6]; 2.39 in test [7]. For the same molecule, the OD450 nm is 1.12 in test [8] and 2.55 in [9]. This molecule also came in with an EC50 in [4] of 13.6 nM. This molecule came in with a Max MFI in [4] of 37400 MFI.

B8: hAb005LH3L1a (antibody, human IgG1, V domains shown)
VH: B1 VH with M48I, V68A
VL: B1 VL with N33D
As to B8, the OD450 nm was 0.098 in [1]; 0.039 in [2]; 0.041 in test [3]; 0.04 in test [5]; 0.042 in test [6]; 0.161 in test [7]. Also, the OD450 nm in [8] was determined as 0.038; in [9], 0.527. Also, in [4], the EC50 was 112 nM. In [4], this molecule displayed a Max MFI of 2920 MFI.

B9: hAb005LH3L1 (antibody, human IgG1, V domains shown)
VH: B1 VH with M48I, V68A
VL: B1 VL
As to B9, the OD450 nm in test [1] came to 1.27; in [2] it was 0.609; in [3] it was 0.226; in [5] it was 0.088; in [6], 1.15; in test [7] it was 1.13. The OD450 nm in [8] came to 0.997; in test [9], 1.24. The half-maximal effective concentration (EC50) in test [4] is 3.09 nM. The Max MFI in test [4] worked out at 22200 MFI.

B10: hAb007LH2L1 (antibody, human IgG1, V domains shown)
VH: B3 VH with L70I
VL: B1 VL with L29F, N35D, H39Q, S94F, N96G, T97S, P101Y, G105Q, V109L
In the case of B10, the OD450 nm was 2.47 in test [1]; 0.707 in test [2]; 0.253 in test [3]; 0.101 in [5]; 2.31 in test [6]; 2.47 in test [7]. The values for the OD450 nm in [8] and in test [9] were 1.74 and 2.57, respectively. Further, the EC50 in test [4] was found to be 14.8 nM. The molecule also registered a Max MFI in [4] of 37800 MFI.

B11: F1.115.8 human-murine chimeric antibody (antibody, human IgG1, kappa, V domains shown)
VH: EVQLQQSGPELVKPGASVKMSCKASGYTFTEYYMHWVKQSHGKSLEWIGYIYPNNGGNGYNQKFKGKATLTVDKSSSTAYMGLRSLTSEDSAVYYCVRGYYSNWYFDVWGTGTTVTVSS
VL: DVLMTQTPLSLPVSLGDQASISCRSSQSIVHSNGKTYLEWYLQKPGQSPKLLIYKVSNRFSGVPDRFSGSGSGTDFTLKISRVEAEDLGVYYCFQGSHVPFTFGSGTKLEIKR
In test [10], B11 had an OD450 at 0.0001 nM antibody of 0.05 OD450 nm, an OD450 at 0.001 nM antibody of 0.05 OD450 nm, an OD450 at 0.01 nM antibody of 0.07 OD450 nm and an OD450 at 0.1 nM antibody of 0.34 OD450 nm. In addition, in [10], the OD450 at 1 nM antibody turned out to be 0.4 OD450 nm, the OD450 at 10 nM antibody worked out at 0.7 OD450 nm and the OD450 at 100 nM antibody came out at 0.6 OD450 nm.

B12: F1.120.16 human-murine chimeric antibody (antibody, human IgG1, kappa, V domains shown)
VH: EFQLQQSGPELVKPGASVKISCKASGYSFTDYNMNWVKQSNGKSLEWIGLIHPKFSVTSYNRKFKGKATLTVDQSSSTAYMQLNSLTSEDSAVYYCARWAGDYFDYWGQGTTLTVSS
VL: DIVLTQSPATLSVTPGDSVSLSCRASQSISNNLHWYQQKSHESPRLLIKYASQSISGIPSRFSGSGSGTDFTLTINSVETEDFGMYFCQQSNSWPQTFGGGTKLEIKR
In test [10], B12 returned an OD450 at 0.0001 nM antibody of 0.05 OD450 nm, an OD450 at 0.001 nM antibody of 0.07 OD450 nm, an OD450 at 0.01 nM antibody of 0.16 OD450 nm and an OD450 at 0.1 nM antibody of 0.72 OD450 nm. For the same molecule, in test [10], the OD450 at 1 nM antibody amounted to 0.76 OD450 nm, the OD450 at 10 nM antibody amounted to 0.8 OD450 nm and the OD450 at 100 nM antibody came to 0.54 OD450 nm.

B13: F1.73.9 human-murine chimeric antibody (antibody, human IgG1, kappa, V domains shown)
VH: QVQLKQSGAELVRPGASVKLSCKASGYTFTDYYINWVKQRPGQGLEWIARIYPGSGNTYYNEKFKGKATLTAEKSSSTAYMQFSSLTSEDSAVYFCACSTYYTMDYWGQGTSVTVSS
VL: QIVLTQSPAIMSASLGERVTMTCTASSGVSSSYLHWYQQKPGSSPKLWIYTTSNLASGVPARFSGSGSGTSYSLTISSMEAEDAATYYCHQYHRSPYTFGGGTKLEIKR
In test [10], B13 displayed an OD450 at 0.0001 nM antibody of 0.05 OD450 nm, an OD450 at 0.001 nM antibody of 0.06 OD450 nm, an OD450 at 0.01 nM antibody of 0.06 OD450 nm and an OD450 at 0.1 nM antibody of 0.58 OD450 nm. In [10], the OD450 at 1 nM antibody turned out to be 0.41 OD450 nm, the OD450 at 10 nM antibody is 0.86 OD450 nm and the OD450 at 100 nM antibody was determined as 0.52 OD450 nm.

B14: F1.57.21 human-murine chimeric antibody (antibody, human IgG1, kappa, V domains shown)
VH: QVQLQQSGAELARPGASVKLSCKASGYTFTSYGISWVKQITGQGLEWIGEIYPRSESTYYNEKFKGKATLTADKSSSTAYMELRSLTSEDSAVYFCARDYGNIYSFAYWGQGTLVTVSA
VL: DIQMTQSPASLSASVGETVTITCRTSENIYSYLAWYQQKQGKSPQLLVYNAKTLAEGVPSRFSGSGSGTQFSLKINSLQPEDFGSYYCQHHYGTPLTFGAGTKLELKR
In [10], B14 came in with an OD450 at 0.0001 nM antibody of 0.05 OD450 nm, an OD450 at 0.001 nM antibody of 0.06 OD450 nm, an OD450 at 0.01 nM antibody of 0.07 OD450 nm and an OD450 at 0.1 nM antibody of 0.13 OD450 nm. Moreover, in test [10], the OD450 at 1 nM antibody turned out to be 0.2 OD450 nm, the OD450 at 10 nM antibody is 0.79 OD450 nm and the OD450 at 100 nM antibody is 0.65 OD450 nm.
